Columns and labels:
MET567 [1] = molecular target: T1, MET567 (human, UniProt P08581 25-567); experiment: SEC-SAXS; K1K1 in complex with MET567 injected on Superdex 200 PC 3.2/300 Increase on line with SAXS (ESRF BM29); 25 mM Tris (pH 7.4), 150 mM NaCl; conditions: both partners purified
T1 construct: human MET receptor fragment MET567 comprising the N-terminal SEMA domain and the cysteine-rich/PSI domain; as I recall it spans residues 25-567 of MET; also called MET567 receptor fragment; MET567 fragment; source: CHO Lec 3.2.8.1 cells, purified as described in Gherardi et al (2003)
T1 sequence (P08581 25-567): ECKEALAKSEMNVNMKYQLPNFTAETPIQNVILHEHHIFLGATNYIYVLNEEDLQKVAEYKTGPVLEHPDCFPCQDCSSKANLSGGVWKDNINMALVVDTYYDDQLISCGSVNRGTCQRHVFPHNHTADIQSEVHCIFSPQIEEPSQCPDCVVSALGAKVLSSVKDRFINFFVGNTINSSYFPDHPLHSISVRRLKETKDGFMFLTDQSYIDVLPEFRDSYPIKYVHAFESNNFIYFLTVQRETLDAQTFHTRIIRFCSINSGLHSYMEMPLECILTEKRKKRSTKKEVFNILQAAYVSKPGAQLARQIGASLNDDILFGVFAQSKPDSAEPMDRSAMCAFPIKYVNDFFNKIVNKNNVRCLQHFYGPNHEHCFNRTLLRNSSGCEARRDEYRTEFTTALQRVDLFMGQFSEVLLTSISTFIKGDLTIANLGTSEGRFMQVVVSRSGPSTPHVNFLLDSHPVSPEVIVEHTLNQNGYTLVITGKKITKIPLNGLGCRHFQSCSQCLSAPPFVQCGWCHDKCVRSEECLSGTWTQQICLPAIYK

MET567 [2] = molecular target: T1, MET567; experiment: SPR; Biacore T200; MET567 immobilised at low density (515 RU) by amine coupling on a CM5 chip; 25°C, PBST (PBS + 0.05% Tween 20), 30 ul/min, 300-s injections to equilibrium; apparent KD from the binding isotherm; conditions: both partners purified

| Binder | stoichiometry N (MET567 [1]) | Kd (MET567 [2]) |
| --- | --- | --- |
| K1K1 (ligand, Intra-kringle disulphides (three per kringle). The initiator Met of the MAIRN construct is absent from the 7OCL entity, so paper numbering = entity number + 1. Layout: (M)AIRN + HGF 128-206 + SEVE + …) AIRNCIIGKGRSYKGTVSITKSGIKCQPWSSMIPHEHSFLPSSYRGKDLQENYCRNPRGEEGGPWCFTSNPEVRYEVCDIPQCSEVECIIGKGRSYKGTVSITKSGIKCQPWSSMIPHEHSFLPSSYRGKDLQENYCRNPRGEEGGPWCFTSNPEVRYEVCDIPQCSEVE | 1 | 205 nM |
| NK1 (natural protein, human, UniProt P14210 28-209, looked up, human NK1, splice variant of HGF/SF with the N-domain and the first kringle domain (K1), residues 28-209; also called recombinant human NK1 protein; wild-type NK1; source: Pichia pastoris, purified as described in Chirgadze et al (1999)) YAEGQRKRRNTIHEFKKSAKTTLIKIDPALKIKTKKVNTADQCANRCTRNKGLPFTCKAFVFDKARKQCLWFPFNSMSSGVKKEFGHEFDLYENKDYIRNCIIGKGRSYKGTVSITKSGIKCQPWSSMIPHEHSFLPSSYRGKDLQENYCRNPRGEEGGPWCFTSNPEVRYEVCDIPQCSEV |  | 200 nM |

Source: article PMC9348577, “Dimerization of kringle 1 domain from hepatocyte growth factor/scatter factor provides a potent MET receptor agonist” (Life Science Alliance, 2022)
